Paper PMC4858697, “Crystal structure of TRAF1 TRAF domain and its implications in the TRAF1-mediated intracellular signaling pathway” (Scientific Reports, 2016)
Values belong to the molecule of their own block, whether it stands above or below them.

B1: human TRAF1 TRAF domain (residues 220-416), containing the TRAF-N coiled-coil domain and the TRAF-C domain (domain or fragment, UniProt Q13077 220-416, looked up)
chain: HQSQLDRERILSLEQRVVELQQTLAQKDQALGKLEQSLRLMEEASFDGTFLWKITNVTRRCHESACGRTVSLFSPAFYTAKYGYKLCLRLYLNGDGTGKRTHLSLFIVIMRGEYDALLPWPFRNKVTFMLLDQNNREHAIDAFRPDLSSASFQRPQSETNVASGCPLFFPLSKLQSPKHAYVKDDTMFLKCIVETST
notes: TNF-receptor associated factor 1 (TRAF1), human, TRAF domain, amino acids 220-416, cloned into pET24a; Trimer in the crystal and in solution (SEC, MALS); also called wildtype TRAF1; not shown: His-tag, C-terminal, kept

Assays:
[1] = biological target: TANK peptide PEP (Homo sapiens) (UniProt Q92844); conditions: cited from earlier work
Sequence of TANK peptide PEP (Homo sapiens) (Q92844 178-198): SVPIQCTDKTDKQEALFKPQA

[2] = biological target: the molecule itself; assay: SEC; Superdex 200 10/30 gel filtration in 20 mM sodium citrate pH 5.0, 1 M NaCl
[3] = biological target: B1; assay: ITC; NanoITC; 1 mM TANK peptide injected into ~20 uM wildtype or mutant TRAF1 in the cell; PBS; 15 °C; 25 injections; single site model; conditions: both partners purified

Molecule: TRAF3 (from UniProt Q13114)
Kd [1]: 23.9 µM

Molecule: B1
stoichiometry N [2]: 3

Kd [3]: 13.6 µM
B2: TANK peptide (SVPIQCTDKT) (peptide)
peptide: SVPIQCTDKT
notes: also called I-TRAF; source: synthetic peptide (Peptron, Dae-jeon, South Korea)
